1 substance from article PMC5454113 can be followed below.

Experiment [1] concerns the target activated factor X (FXa) (UniProt P00742). The experiment in a line: enzyme inhibition kinetics (chromogenic substrate); as a1, with 30 nM recombinant FV, no protein S.
Experiment [2] shares this target. The experiment in a line: enzyme inhibition kinetics (chromogenic substrate); as a1, with 100 nM protein S, no FV.
For experiment [3] the target is unchanged. As to the kind of experiment: enzyme inhibition kinetics (chromogenic substrate); FXa 0.3 nM, TFPI 0–16 nM, S-2765 200 uM, 25 uM phospholipids (DOPC/DOPS/DOPE 60:20:20), 5 mM CaCl2, 25 °C, 60 min; no protein S, no FV; Ki = encounter complex, Ki* = overall dissociation constant.
For experiment [4] the target is unchanged. The experiment in a line: enzyme inhibition kinetics (chromogenic substrate); as a1, with 30 nM recombinant FV and 100 nM protein S.

For orientation: Ki means a measure of affinity in units of concentration, obtained from inhibition or displacement.

Sequence of UniProt P00742 (P00742 41-179, chain 1 of 2): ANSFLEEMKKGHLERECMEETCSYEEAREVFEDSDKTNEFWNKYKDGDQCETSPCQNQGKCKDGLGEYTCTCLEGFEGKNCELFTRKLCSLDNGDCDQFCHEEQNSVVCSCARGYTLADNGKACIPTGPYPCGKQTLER
Sequence of UniProt P00742 (P00742 235-488, chain 2 of 2): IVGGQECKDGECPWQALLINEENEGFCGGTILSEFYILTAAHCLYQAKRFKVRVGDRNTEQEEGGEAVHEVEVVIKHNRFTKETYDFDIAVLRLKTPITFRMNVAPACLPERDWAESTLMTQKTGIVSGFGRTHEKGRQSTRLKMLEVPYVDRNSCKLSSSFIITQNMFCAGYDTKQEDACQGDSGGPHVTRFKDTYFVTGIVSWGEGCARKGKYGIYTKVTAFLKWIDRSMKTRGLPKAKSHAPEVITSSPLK

Turning to “TFPI ΔCT (aa 1–249) (domain or fragment)”, the Ki with activated factor X (FXa) [1] amounted to 0.31 nM; in the experiment with activated factor X (FXa) [2], 0.047 nM; with activated factor X (FXa) [3], 0.05 nM; with activated factor X (FXa) [4], 0.028 nM. Moreover, the Ki of the encounter complex (first step) in the experiment with activated factor X (FXa) [1] was determined as 7.41 nM; in the experiment with activated factor X (FXa) [2] it was 4.57 nM; with activated factor X (FXa) [3], 5.69 nM; in the experiment with activated factor X (FXa) [4] it was 1.61 nM.
